Measured values taken from the Human Domainome abundance scans (Beltran et al. 2025).
± gives the uncertainty stated by the source.

B1: Chromodomain-helicase-DNA-binding protein 3, residues 374 to 426; numbered along this chain, Q12873 (parent)
chain: YETDHQDYCEVCQQGGEIILCDTCPRAYHLVCLDPELDRAPEGKWSCPHCEKE

Variants of: B1
Assay: abundance fitness (aPCA) (normalised: wild type 0, dead -1); higher = more abundant; growth selection in yeast, the domain comes from the species named
Settings: Homo sapiens

Variant | abundance fitness
G43N | 0.204 ± 0.14
G43A | -0.314 ± 0.15
G43K | 0.119 ± 0.19
G43P | 0.057 ± 0.17
G43E | 0.22 ± 0.15
G43S | -0.043 ± 0.096
G43V | 0.054 ± 0.1
G43Q | -0.001 ± 0.24
G43D | -0.031 ± 0.16
G43R | -0.142 ± 0.088
G43F | -0.257 ± 0.19
G43I | -0.368 ± 0.21
G43H | -0.12 ± 0.16
G43M | -0.039 ± 0.21
G43L | -0.343 ± 0.12
H49Q | -0.034 ± 0.27
H49M | -0.797 ± 0.45
H49A | -0.183 ± 0.16
H49I | 0.221 ± 0.39
H49D | -0.185 ± 0.15
H49C | -0.456 ± 0.22

Variant | abundance fitness
H49G | -0.033 ± 0.093
H49F | -0.244 ± 0.33
H49P | -0.334 ± 0.24
H49L | -0.128 ± 0.11
H49E | -0.062 ± 0.17
H49W | -0.234 ± 0.14
H49N | 0.217 ± 0.29
H49R | -0.143 ± 0.1
H49K | -0.127 ± 0.2
H49T | -0.011 ± 0.23
H49Y | -0.32 ± 0.23
H49V | 0.126 ± 0.12
C50Y | -0.791 ± 0.15
C50Q | -0.57 ± 0.22
C50E | -0.547 ± 0.16
C50N | -0.664 ± 0.38
C50P | -0.424 ± 0.16
C50G | -0.383 ± 0.12
C50W | -0.565 ± 0.13
C50F | -0.682 ± 0.31
C50H | -0.291 ± 0.33

Variant | abundance fitness
C50A | -0.417 ± 0.13
C50K | -0.923 ± 0.23
C50V | -0.598 ± 0.12
C50S | -0.66 ± 0.14
C50D | -0.176 ± 0.26
C50I | -0.564 ± 0.28
C50L | -0.468 ± 0.11
D34L | -0.083 ± 0.092
D34S | -0.127 ± 0.091
D34N | -0.189 ± 0.11
D34F | -0.287 ± 0.12
D34G | -0.156 ± 0.099
D34V | -0.1 ± 0.08
D34Y | -0.327 ± 0.13
D34E | -0.011 ± 0.11
D34I | -0.383 ± 0.14
D34W | -0.747 ± 0.22
D34R | -0.197 ± 0.093
D34H | -0.385 ± 0.14
D34P | -0.089 ± 0.11
D34Q | -0.112 ± 0.15

Variant | abundance fitness
D34K | -0.079 ± 0.12
D34C | -0.316 ± 0.15
D34M | -0.494 ± 0.13
D34A | -0.198 ± 0.082
A40F | -0.44 ± 0.16
A40M | -0.004 ± 0.13
A40T | -0.162 ± 0.17
A40E | 0.13 ± 0.12
A40P | -0.138 ± 0.15
A40H | -0.412 ± 0.22
A40C | -0.33 ± 0.13
A40S | -0.221 ± 0.1
A40W | -0.346 ± 0.17
A40R | -0.129 ± 0.11
A40D | 0.026 ± 0.19
A40G | -0.398 ± 0.1
A40Y | -0.38 ± 0.17
A40N | -0.169 ± 0.26
A40K | -0.188 ± 0.19
A40Q | 0.126 ± 0.14
